Five substances from PMC11449375 can be followed below.

Assay [1] addresses AMC008 SOSIP.v9 (HIV-1 clade B, AMC008). The experiment in a line: negative-stain EM; purified SOSIPs incubated with Adjuplex, on carbon-covered copper grids, 2% uranyl formate; 2D class averages.
The target is the same in assay [2]. As to the kind of experiment: native gel or EMSA; Blue Native-PAGE of the purified SOSIP.v9 proteins, 3-12% Bis-Tris NuPAGE gel, 2 ug protein, Colloidal blue stain. In general terms: In EMSA bound probe runs differently from free probe, usually more slowly.
Assay [3] addresses AMC009 SOSIP.v9 (HIV-1 clade B, AMC009). The experiment in a line: negative-stain EM; purified SOSIPs incubated with Adjuplex, on carbon-covered copper grids, 2% uranyl formate; 2D class averages.
The target is the same in assay [4]. As to the kind of experiment: native gel or EMSA; Blue Native-PAGE of the purified SOSIP.v9 proteins, 3-12% Bis-Tris NuPAGE gel, 2 ug protein, Colloidal blue stain.
The target in assay [5] is AMC011 SOSIP.v9 (HIV-1 clade B, AMC011). The experiment in a line: negative-stain EM; purified SOSIPs incubated with Adjuplex, on carbon-covered copper grids, 2% uranyl formate; 2D class averages.
For assay [6] the target is unchanged. The experiment in a line: native gel or EMSA; Blue Native-PAGE of the purified SOSIP.v9 proteins, 3-12% Bis-Tris NuPAGE gel, 2 ug protein, Colloidal blue stain.
In assay [7] the target is AMC016 SOSIP.v9 (HIV-1 clade B, AMC016). The experiment in a line: negative-stain EM; purified SOSIPs incubated with Adjuplex, on carbon-covered copper grids, 2% uranyl formate; 2D class averages.
Assay [8] has the same target. The experiment in a line: native gel or EMSA; Blue Native-PAGE of the purified SOSIP.v9 proteins, 3-12% Bis-Tris NuPAGE gel, 2 ug protein, Colloidal blue stain.
Assay [9] concerns the target TRO.11 SOSIP.v9 (HIV-1 clade B, TRO.11). As to the kind of experiment: negative-stain EM; purified SOSIPs incubated with Adjuplex, on carbon-covered copper grids, 2% uranyl formate; 2D class averages.
Assay [10] shares this target. As to the kind of experiment: native gel or EMSA; Blue Native-PAGE of the purified SOSIP.v9 proteins, 3-12% Bis-Tris NuPAGE gel, 2 ug protein, Colloidal blue stain.

Take AMC008 SOSIP.v9 (complex): the stoichiometry N in assay [1] and in assay [2] was 3 each time.
With AMC009 SOSIP.v9 (complex), the stoichiometry N in assay [3] and in assay [4] was 3 throughout.
For AMC011 SOSIP.v9 (complex), the stoichiometry N in assay [5] and in assay [6] was 3 each time.
AMC016 SOSIP.v9 (complex): the stoichiometry N in assay [7] and in assay [8] was 3 in each case.
As for TRO.11 SOSIP.v9 (complex), the stoichiometry N in assay [9] and in [10] was 3 throughout.

A word on the stoichiometry N: it is a count of units in the complex or per binding partner.
